Here are results for one substance from article doi:10.1101/2025.08.22.671756.

The target in this assay is Drosophila melanogaster insulin receptor ectodomain (dmIR-ECD) (Drosophila melanogaster) (UniProt P09208). The assay can be described thus: cryo-EM structure.
Sequence of Drosophila melanogaster insulin receptor ectodomain (dmIR-ECD) (Drosophila melanogaster) (P09208 291-1309): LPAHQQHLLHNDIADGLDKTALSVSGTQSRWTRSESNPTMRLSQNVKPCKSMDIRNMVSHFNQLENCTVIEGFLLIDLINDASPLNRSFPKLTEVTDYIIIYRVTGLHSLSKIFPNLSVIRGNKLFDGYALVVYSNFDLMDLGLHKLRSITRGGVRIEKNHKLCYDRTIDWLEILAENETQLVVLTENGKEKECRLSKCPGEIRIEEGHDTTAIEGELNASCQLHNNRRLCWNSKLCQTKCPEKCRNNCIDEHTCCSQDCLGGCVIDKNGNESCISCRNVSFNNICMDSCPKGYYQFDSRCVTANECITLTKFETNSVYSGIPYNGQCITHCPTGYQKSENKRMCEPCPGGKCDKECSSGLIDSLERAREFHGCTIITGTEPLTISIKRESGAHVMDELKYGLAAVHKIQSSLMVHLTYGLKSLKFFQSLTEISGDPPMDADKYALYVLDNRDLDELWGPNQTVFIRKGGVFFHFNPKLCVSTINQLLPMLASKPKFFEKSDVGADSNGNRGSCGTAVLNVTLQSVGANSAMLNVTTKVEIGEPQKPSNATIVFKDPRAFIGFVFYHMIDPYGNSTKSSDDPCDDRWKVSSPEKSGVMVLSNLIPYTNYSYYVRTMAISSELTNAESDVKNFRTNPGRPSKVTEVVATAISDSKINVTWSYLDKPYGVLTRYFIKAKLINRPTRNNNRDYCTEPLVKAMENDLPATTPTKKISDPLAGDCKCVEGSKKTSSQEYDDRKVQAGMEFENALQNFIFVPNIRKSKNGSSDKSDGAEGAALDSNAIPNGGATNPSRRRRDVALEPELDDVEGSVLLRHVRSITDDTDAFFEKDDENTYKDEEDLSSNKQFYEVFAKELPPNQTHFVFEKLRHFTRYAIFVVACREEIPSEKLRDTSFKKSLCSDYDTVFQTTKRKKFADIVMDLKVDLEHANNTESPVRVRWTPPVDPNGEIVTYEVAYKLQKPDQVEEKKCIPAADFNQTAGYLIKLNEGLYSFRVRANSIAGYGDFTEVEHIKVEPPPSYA

Sequence of Drosophila insulin-like peptide 2 (DILP2), synthetic two-chain hormone with the A-chain starting at GlnA5 (ligand) (Q9VT51 27-137): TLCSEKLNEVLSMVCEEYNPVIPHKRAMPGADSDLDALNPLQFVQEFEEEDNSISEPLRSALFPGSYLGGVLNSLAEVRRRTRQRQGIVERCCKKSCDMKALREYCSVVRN

For “Drosophila insulin-like peptide 2 (DILP2), synthetic two-chain hormone with the A-chain starting at GlnA5 (ligand)”, the stoichiometry N (DILP2 per dmIR-ECD (conformer 1)) was found to be 1 and the stoichiometry N (DILP2 per dmIR-ECD (conformer 2)) is 2.
